The assay addresses Rat tail collagen-I (polymerized fibrillar collagen type I) (rat) (UniProt P02454). Description: FRAP.
UniProt P02454, sequence (P02454 152-1207, chain 1 of 2): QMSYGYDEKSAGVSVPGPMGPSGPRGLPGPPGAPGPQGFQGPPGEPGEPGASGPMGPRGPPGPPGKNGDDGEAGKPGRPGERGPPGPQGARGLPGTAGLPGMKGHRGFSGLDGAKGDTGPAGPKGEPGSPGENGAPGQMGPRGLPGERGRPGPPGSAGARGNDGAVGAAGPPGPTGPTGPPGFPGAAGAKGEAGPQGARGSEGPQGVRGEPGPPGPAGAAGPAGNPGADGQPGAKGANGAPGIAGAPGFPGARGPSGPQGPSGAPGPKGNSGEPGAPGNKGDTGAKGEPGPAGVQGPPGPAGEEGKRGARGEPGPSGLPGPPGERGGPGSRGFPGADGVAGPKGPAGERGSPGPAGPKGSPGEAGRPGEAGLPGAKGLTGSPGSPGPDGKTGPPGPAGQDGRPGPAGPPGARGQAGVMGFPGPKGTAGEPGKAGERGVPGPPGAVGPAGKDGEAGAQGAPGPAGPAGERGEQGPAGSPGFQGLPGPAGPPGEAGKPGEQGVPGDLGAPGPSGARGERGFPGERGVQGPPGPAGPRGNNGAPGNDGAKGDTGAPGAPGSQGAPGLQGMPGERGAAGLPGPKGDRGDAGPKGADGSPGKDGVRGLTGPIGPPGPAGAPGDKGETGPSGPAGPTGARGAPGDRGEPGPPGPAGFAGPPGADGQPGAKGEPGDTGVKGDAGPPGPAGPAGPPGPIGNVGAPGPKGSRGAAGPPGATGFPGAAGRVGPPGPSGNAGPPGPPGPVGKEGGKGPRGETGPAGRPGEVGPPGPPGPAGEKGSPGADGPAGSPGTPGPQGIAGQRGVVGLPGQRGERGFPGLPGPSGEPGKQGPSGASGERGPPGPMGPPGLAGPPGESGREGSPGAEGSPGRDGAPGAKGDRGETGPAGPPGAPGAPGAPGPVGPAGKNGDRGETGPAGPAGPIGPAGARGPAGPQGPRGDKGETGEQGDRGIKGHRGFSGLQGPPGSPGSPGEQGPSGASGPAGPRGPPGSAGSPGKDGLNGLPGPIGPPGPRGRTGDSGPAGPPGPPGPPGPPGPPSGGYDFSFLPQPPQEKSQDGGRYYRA
UniProt P02454, sequence (P02466 86-1125, chain 2 of 2, further chain): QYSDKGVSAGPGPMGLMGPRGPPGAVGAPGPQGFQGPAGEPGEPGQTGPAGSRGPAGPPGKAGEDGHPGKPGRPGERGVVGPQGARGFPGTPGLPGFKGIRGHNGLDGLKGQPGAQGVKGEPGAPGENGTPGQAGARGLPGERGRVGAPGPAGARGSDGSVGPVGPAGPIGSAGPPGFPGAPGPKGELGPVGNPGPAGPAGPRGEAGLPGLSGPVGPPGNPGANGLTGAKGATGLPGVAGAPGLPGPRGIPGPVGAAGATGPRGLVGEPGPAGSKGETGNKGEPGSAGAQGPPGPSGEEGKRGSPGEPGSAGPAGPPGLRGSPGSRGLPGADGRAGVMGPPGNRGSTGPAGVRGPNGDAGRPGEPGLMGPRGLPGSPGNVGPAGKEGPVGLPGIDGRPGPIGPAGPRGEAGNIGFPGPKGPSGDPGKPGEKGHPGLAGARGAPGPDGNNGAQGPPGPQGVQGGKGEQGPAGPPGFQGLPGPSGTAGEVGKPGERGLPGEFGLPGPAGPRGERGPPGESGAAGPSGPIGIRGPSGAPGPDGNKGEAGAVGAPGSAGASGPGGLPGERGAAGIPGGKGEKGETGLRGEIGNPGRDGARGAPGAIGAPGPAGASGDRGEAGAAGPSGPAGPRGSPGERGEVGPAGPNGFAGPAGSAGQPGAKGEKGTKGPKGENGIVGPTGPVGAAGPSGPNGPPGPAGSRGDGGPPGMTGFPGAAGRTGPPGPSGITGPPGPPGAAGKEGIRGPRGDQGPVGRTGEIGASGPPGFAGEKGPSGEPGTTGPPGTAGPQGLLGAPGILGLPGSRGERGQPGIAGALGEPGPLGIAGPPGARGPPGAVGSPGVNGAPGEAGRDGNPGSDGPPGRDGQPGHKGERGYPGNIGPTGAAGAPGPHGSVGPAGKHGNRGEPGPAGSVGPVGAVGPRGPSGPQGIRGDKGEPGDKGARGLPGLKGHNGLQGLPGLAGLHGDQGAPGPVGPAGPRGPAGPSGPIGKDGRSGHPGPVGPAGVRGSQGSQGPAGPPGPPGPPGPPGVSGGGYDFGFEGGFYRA

In the case of “Alexa488-labeled epidermal growth factor (EGF) (ligand)”, the mobile fraction (FRAP, free Alexa488-EGF in the medium) is 50%.

The values are drawn from publication PMC8570598.
